In patent US20240409617A1 (Dana-Farber, published 2024):

Target: Human FcRn, biotinylated (human, UniProt P55899 24-297; P61769 21-119)

B1: Ab2-7 scFv-Fc (Fc fusion)
chain 1: QVTLKESGPTRVKPTQTLTLTCTFSGFSLSTTGVGVGWIRQPPGKALEWLALIYWNDDKRYSPSLKSRLTITKDTSKNQVVLTMTNMDPVDTATYYCARISGSGYFYPFDIWGQGTTVTVSS
chain 2: NFMLTQPHSVSESPGKTVTISCTRSSGSIASNYVQWYQQRPGSSPTTVIYEDNQRPSGVPDRFSGSIDSSSNSASLTISGLKAEDEADYYCQSYDSSSLWVFGGGTKLTVL
Q: Which Kd does the source give for B1 here?
A: 11.7 nM

Q: What about the koff of the same binder?
A: 0.00198 s⁻¹

Q: What about the kon of the same binder?
A: 169000 M⁻¹ s⁻¹
